Results reported in US20160024487.
Numbering of substitutions follows the chain as printed.

Tests used:
[1] = biological target: T1, Lys(Dnp)-ASTAVVIAGRIVGG-Lys(Abz)
T1 chain: KASTAVVIAGRIVGGK

[2] = biological target: T2, Lys(Dnp)-ATLDPRIVGG-Lys(Abz)
T2 chain: KATLDPRIVGGK

[3] = biological target: T3, Lys(Dnp)-ATNATDIPRIVGG-Lys(Abz)
T3 chain: KATNATDIPRIVGGK

[4] = biological target: T4, Lys(Dnp)-ATNATDKPRIVGG-Lys(Abz)
T4 chain: KATNATDKPRIVGGK

[5] = biological target: T5, Lys(Dnp)-ATNATDPPRIVGG-Lys(Abz)
T5 chain: KATNATDPPRIVGGK

[6] = biological target: T6, Lys(Dnp)-ATNATDSPRIVGG-Lys(Abz)
T6 chain: KATNATDSPRIVGGK

[7] = biological target: T7, Lys(Dnp)-ATNATDWPRIVGG-Lys(Abz)
T7 chain: KATNATDWPRIVGGK

[8] = biological target: T8, Lys(Dnp)-ATNATENPRIVGG-Lys(Abz)
T8 chain: KATNATENPRIVGGK

[9] = biological target: T9, Lys(Dnp)-ATNATKPPRIVGG-Lys(Abz)
T9 chain: KATNATKPPRIVGGK

[10] = biological target: T10, Lys(Dnp)-ATNATLPPRIVGG-Lys(Abz)
T10 chain: KATNATLPPRIVGGK

[11] = biological target: T11, Lys(Dnp)-ATNATNDPRIVGG-Lys(Abz)
T11 chain: KATNATNDPRIVGGK

[12] = biological target: T12, Lys(Dnp)-ATNATNPPRIVGG-Lys(Abz)
T12 chain: KATNATNPPRIVGGK

[13] = biological target: T13, Lys(Dnp)-ATNATQPPRIVGG-Lys(Abz)
T13 chain: KATNATQPPRIVGGK

[14] = biological target: T14, Lys(Dnp)-ATNATRQPRIVGG-Lys(Abz)
T14 chain: KATNATRQPRIVGGK

[15] = biological target: T15, Lys(Dnp)-DFLAEGGGPRIVGG-Lys(Abz)
T15 chain: KDFLAEGGGPRIVGGK

[16] = biological target: T16, Lys(Dnp)-DFLAEGGGVRIVGG-Lys(Abz)
T16 chain: KDFLAEGGGVRIVGGK

[17] = biological target: T17, Lys(Dnp)-DNEEGFFSARIVGG-Lys(Abz)
T17 chain: KDNEEGFFSARIVGGK

[18] = biological target: T18, Lys(Dnp)-DQVTVAMTPRIVGG-Lys(Abz)
T18 chain: KDQVTVAMTPRIVGGK

[19] = biological target: T19, Lys(Dnp)-EDQEDQVDPRIVGG-Lys(Abz)
T19 chain: KEDQEDQVDPRIVGGK

[20] = biological target: T20, Lys(Dnp)-EDSDRAIEGRIVGG-Lys(Abz)
T20 chain: KEDSDRAIEGRIVGGK

[21] = biological target: T21, Lys(Dnp)-HTHHAPLSPRIVGG-Lys(Abz)
T21 chain: KHTHHAPLSPRIVGGK

[22] = biological target: T22, Lys(Dnp)-LSKNNAIEPRIVGG-Lys(Abz)
T22 chain: KLSKNNAIEPRIVGGK

[23] = biological target: T23, Lys(Dnp)-NESTTKIKPRIVGG-Lys(Abz)
T23 chain: KNESTTKIKPRIVGGK

[24] = biological target: T24, Lys(Dnp)-NLAKPTLPIKIVGG-Lys(Abz)
T24 chain: KNLAKPTLPIKIVGGK

[25] = biological target: T25, Lys(Dnp)-NRLAAALGIRIVGG-Lys(Abz)
T25 chain: KNRLAAALGIRIVGGK

[26] = biological target: T26, Lys(Dnp)-PDNIAAWYLRIVGG-Lys(Abz)
T26 chain: KPDNIAAWYLRIVGGK

[27] = biological target: T27, Lys(Dnp)-QISNDTVSPRIVGG-Lys(Abz)
T27 chain: KQISNDTVSPRIVGGK

[28] = biological target: T28, Lys(Dnp)-RGDSVVYGLRIVGG-Lys(Abz)
T28 chain: KRGDSVVYGLRIVGGK

[29] = biological target: T29, Lys(Dnp)-SEYQTFFNPRIVGG-Lys(Abz)
T29 chain: KSEYQTFFNPRIVGGK

[30] = biological target: T30, Lys(Dnp)-STPSILPAPRIVGG-Lys(Abz)
T30 chain: KSTPSILPAPRIVGGK

[31] = biological target: T31, Lys(Dnp)-TNATLDPRIVGG-Lys(Abz)
T31 chain: KTNATLDPRIVGGK

[32] = biological target: T32, Lys(Dnp)-TVELQGVVPRIVGG-Lys(Abz)
T32 chain: KTVELQGVVPRIVGGK

[33] = biological target: T33, Lys(Dnp)-YDEDENQSPRIVGG-Lys(Abz)
T33 chain: KYDEDENQSPRIVGGK

[34] = biological target: human α-thrombin (FIIa), P00734

B1: Human plasma purified Factor Xa (Molecular Innovations, Inc) (protein)
chain 1: ANSFLEEMKKGHLERECMEETCSYEEAREVFEDSDKTNEFWNKYKDGDQCETSPCQNQGKCKDGLGEYTCTCLEGFEGKNCELFTRKLCSLDNGDCDQFCHEEQNSVVCSCARGYTLADNGKACIPTGPYPCGKQTLERRKR
chain 2: IVGGQECKDGECPWQALLINEENEGFCGGTILSEFYILTAAHCLYQAKRFKVRVGDRNTEQEEGGEAVHEVEVVIKHNRFTKETYDFDIAVLRLKTPITFRMNVAPACLPERDWAESTLMTQKTGIVSGFGRTHEKGRQSTRLKMLEVPYVDRNSCKLSSSFIITQNMFCAGYDTKQEDACQGDSGGPHVTRFKDTYFVTGIVSWGEGCARKGKYGIYTKVTAFLKWIDRSMKTRGLPKAKSHAPEVITSSPLK
With B1 the FXa kcat/KM [1] was 2.1 M⁻¹ s⁻¹, the FXa kcat/KM [2] was 940 M⁻¹ s⁻¹ and the FXa kcat/KM [3] was 41 M⁻¹ s⁻¹. It also gave an FXa kcat/KM [4] of 11 M⁻¹ s⁻¹, an FXa kcat/KM [5] of 1.6 M⁻¹ s⁻¹ and an FXa kcat/KM [6] of 4.4 M⁻¹ s⁻¹. The FXa kcat/KM [7] was 7.2 M⁻¹ s⁻¹, the FXa kcat/KM [8] was 3.3 M⁻¹ s⁻¹ and the FXa kcat/KM [9] was 8.7 M⁻¹ s⁻¹. It also gave an FXa kcat/KM [10] of 1.6 M⁻¹ s⁻¹, an FXa kcat/KM [11] of 30 M⁻¹ s⁻¹ and an FXa kcat/KM [12] of 2.9 M⁻¹ s⁻¹. The FXa kcat/KM [13] was 9.5 M⁻¹ s⁻¹, the FXa kcat/KM [14] was 4500 M⁻¹ s⁻¹ and the FXa kcat/KM [15] was 5.8 M⁻¹ s⁻¹. It also gave an FXa kcat/KM [16] of 3.4 M⁻¹ s⁻¹, an FXa kcat/KM [17] of 230 M⁻¹ s⁻¹ and an FXa kcat/KM [18] of 470 M⁻¹ s⁻¹. The FXa kcat/KM [19] was 13 M⁻¹ s⁻¹, the FXa kcat/KM [20] was 1900 M⁻¹ s⁻¹ and the FXa kcat/KM [21] was 100 M⁻¹ s⁻¹. The FXa kcat/KM [22] was 1000 M⁻¹ s⁻¹, the FXa kcat/KM [23] was 36 M⁻¹ s⁻¹ and the FXa kcat/KM [24] was 3 M⁻¹ s⁻¹. For the same protein, the FXa kcat/KM [25] was 350 M⁻¹ s⁻¹, the FXa kcat/KM [26] was 15 M⁻¹ s⁻¹ and the FXa kcat/KM [27] was 340 M⁻¹ s⁻¹. It also gave an FXa kcat/KM [28] of 1.7 M⁻¹ s⁻¹, an FXa kcat/KM [29] of 140 M⁻¹ s⁻¹ and an FXa kcat/KM [30] of 230 M⁻¹ s⁻¹. The FXa kcat/KM [31] was 860 M⁻¹ s⁻¹, the FXa kcat/KM [32] was 100 M⁻¹ s⁻¹ and the FXa kcat/KM [33] was 320 M⁻¹ s⁻¹.

B2: FX [191-194]>[NATLMPR]-HPC4 (protein)
chain: ANSFLEEMKKGHLERECMEETCSYEEAREVFEDSDKTNEFWNKYKDGDQCETSPCQNQGKCKDGLGEYTCTCLEGFEGKNCELFTRKLCSLDNGDCDQFCHEEQNSVVCSCARGYTLADNGKACIPTGPYPCGKQTLERRKRSVAQATSSSGEAPDSITWKPYDAADLDPTENPFDLLDFNQTQPERGDNNATLMPRIVGGQECKDGECPWQALLINEENEGFCGGTILSEFYILTAAHCLYQAKRFKVRVGDRNTEQEEGGEAVHEVEVVIKHNRFTKETYDFDIAVLRLKTPITFRMNVAPACLPERDWAESTLMTQKTGIVSGFGRTHEKGRQSTRLKMLEVPYVDRNSCKLSSSFIITQNMFCAGYDTKQEDACQGDSGGPHVTRFKDTYFVTGIVSWGEGCARKGKYGIYTKVTAFLKWIDRSMKTRGLPKAKSHAPEVITSSPLKDQVDPRLIDGK
For B2, the kcat/KM [34] was “No Activity”.

B3: FX [191-194]>[NATLRPR]-HPC4 (protein)
chain: B2 chain with M195R
For B3, the kcat/KM [34] was “No Activity”.

B4: FX [191-194]>[NATMMPR]-HPC4 (protein)
chain: B2 chain with L194M
With B4 the kcat/KM [34] was “No Activity”.

B5: FX [191-194]>[NATIRPR]-HPC4 (protein)
chain: B2 chain with L194I, M195R
B5 was tested, and the kcat/KM [34] was “No Activity”.

B6: FX [191-194]>[NATIKPR]-HPC4 (protein)
chain: B2 chain with L194I, M195K
With B6 the kcat/KM [34] was “No Activity”.

B7: FX [191-194]>[NATLEPR]-HPC4 (protein)
chain: B2 chain with M195E
B7 was tested, and the kcat/KM [34] was “No Activity”.

B8: FX [191-194]>[NATDTPR]-HPC4 (protein)
chain: B2 chain with L194D, M195T
For B8, the kcat/KM [34] was “No Activity”.
